Source: publication PMC3679363 (Molecular cell, 2013)

Molecular target: recombinant His-Tip60α ( (human or mouse cDNA cloned), UniProt Q92993 1-513)
Experiment: pull-down

Sequence of recombinant His-Tip60α (Q92993 whole entry): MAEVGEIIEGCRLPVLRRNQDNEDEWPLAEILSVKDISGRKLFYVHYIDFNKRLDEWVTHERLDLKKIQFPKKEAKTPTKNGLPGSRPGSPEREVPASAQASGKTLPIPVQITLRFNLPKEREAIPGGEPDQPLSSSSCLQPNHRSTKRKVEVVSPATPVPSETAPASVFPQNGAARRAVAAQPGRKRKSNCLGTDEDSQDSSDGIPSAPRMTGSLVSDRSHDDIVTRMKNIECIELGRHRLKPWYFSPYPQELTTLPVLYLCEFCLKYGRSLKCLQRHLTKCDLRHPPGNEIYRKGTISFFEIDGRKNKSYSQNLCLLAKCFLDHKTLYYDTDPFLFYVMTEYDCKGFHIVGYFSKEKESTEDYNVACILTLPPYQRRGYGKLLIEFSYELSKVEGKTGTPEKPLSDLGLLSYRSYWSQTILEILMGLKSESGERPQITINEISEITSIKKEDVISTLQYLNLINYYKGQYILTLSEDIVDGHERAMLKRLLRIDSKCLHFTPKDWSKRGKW

binding result: binds
B1: GST-PRAK (enzyme, UniProt Q8IW41 1-473, looked up)
chain: MSEESDMDKAIKETSILEEYSINWTQKLGAGISGPVRVCVKKSTQERFALKILLDRPKARNEVRLHMMCATHPNIVQIIEVFANSVQFPHESSPRARLLIVMEMMEGGELFHRISQHRHFTEKQASQVTKQIALALRHCHLLNIAHRDLKPENLLFKDNSLDAPVKLCDFGFAKIDQGDLMTPQFTPYYVAPQVLEAQRRHQKEKSGIIPTSPTPYTYNKSCDLWSLGVIIYVMLCGYPPFYSKHHSRTIPKDMRRKIMTGSFEFPEEEWSQISEMAKDVVRKLLKVKPEERLTIEGVLDHPWLNSTEALDNVLPSAQLMMDKAVVAGIQQAHAEQLANMRIQDLKVSLKPLHSVNNPILRKRKLLGTKPKDSVYIHDHENGAEDSNVALEKLRDVIAQCILPQAGKGENEDEKLNEVMQEAWKYNRECKLLRDTLQSFSWNGRGFTDKVDRLKLAEIVKQVIEEQTTSHESQ
